Laboratory results reported in publication PMC12098869, “An mRNA-display derived cyclic peptide scaffold reveals the substrate binding interactions of an N-terminal cysteine oxidase” (Nature Communications, 2025).
Values joined by “and” are separate entries in the source; they are usually repeats but may differ in a detail not shown here. Equal values may be shown once.

Biological target: T1, ADO-C220A, N-terminally His-tagged and biotinylated (human, UniProt Q96SZ5 1-270, C220A, biotin (biotinylated during expression))
T1 construct: 2-aminoethanethiol dioxygenase (ADO), human, UniProt Q96SZ5, full length, site-directed mutant; source: E. coli Rosetta2(DE3), purified (Ni-NTA, SEC); not shown: biotinylation tag (from the vector pQE80L-Navi), N-terminal, kept
T1 sequence (looked up): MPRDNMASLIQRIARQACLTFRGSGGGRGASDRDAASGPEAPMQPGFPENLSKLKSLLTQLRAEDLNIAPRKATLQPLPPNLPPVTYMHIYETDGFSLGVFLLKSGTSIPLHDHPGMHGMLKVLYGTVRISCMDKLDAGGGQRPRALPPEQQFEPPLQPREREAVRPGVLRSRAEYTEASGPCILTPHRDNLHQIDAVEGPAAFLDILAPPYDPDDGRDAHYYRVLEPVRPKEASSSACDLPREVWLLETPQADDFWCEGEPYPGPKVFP
Experiment: SPR; biotinylated ADO or ADO mutant immobilised on a Biotin CAP chip (~2500-3000 RU), substrate peptide injected; Biacore T200, 4 °C; 20 mM HEPES pH 7.5, 500 mM NaCl, 10 mM DTT, 0.1% tween-20; 50 µL/minute; multi-cycle or single-cycle mode not given; each cell is one of three independent measurements
Settings: both partners purified

B1: RGS5(2-15), synthetic peptide corresponding to the methionine excised N-terminus of RGS5, residues 2 to 15 (peptide, UniProt O15539 2-15, looked up)
peptide: CKGLAALPHSCLER
notes: regulator of G-protein signalling 5 (RGS5), residues 2 to 15 (N-terminal Cys exposed); UniProt O15539 is printed for the full-length human protein; also called 14-mer RGS5; source: synthetic peptide
  Kd: 960 nM and 1120 nM and 1310 nM
